Test results as given in patent US20230218738A1 (Pfizer, published 2023).
Numbering of substitutions follows the chain as printed.

B1: MPE8 (antibody, V domains shown)
VH: EVQLVESGGGLVKPGGSLRLSCAASGFTFSSYSMNWVRQAPGKGLEWVSSISASSSYSDYADSAKGRFTISRDNAKTSLFLQMNSLRAEDTAIYFCARARATGYSSITPYFDIWGQGTLVTVSS
VL: QSVVTQTPSVSGAPGQRVTISCTGSSSNIGAGYDVHWYQQLPGTAPKLLIYDNNNRPSGVPDRFSASKSGTSASLAITGLQAEDEADYYCQSYDRNLSGVFGTGTKVTVL
notes: also called MPEG
B2: AM22 (antibody, V domains shown)
VH: QVQLVQSGAEVKKPGATVKVSCKISGHTLIKLSIHWVRQAPGKGLEWMGGYEGEVDEIFYAQKFQHRLTVIADTATDTVYMELGRLTSDDTAVYFCGTLGVTVTEAGLGIDDYWGQGTLVTVSS
VL: EIVLTQSPGTLSLSPGERATLSCRASQIVSRNHLAWYQQKPGQAPRLLIFGASSRATGIPVRFSGSGSGTDFTLTINGLAPEDFAVYYCLSSDSSIFTFGPGTKVDFK

How the values were obtained:
Assay in all cases: BLI (Octet), F on anti-HIS tip, 20 nM mAb
[1] = biological target: T1, RSV F protein mutant pXCS886 (RSV A2, UniProt P03420 26-109)
T1 chain 1: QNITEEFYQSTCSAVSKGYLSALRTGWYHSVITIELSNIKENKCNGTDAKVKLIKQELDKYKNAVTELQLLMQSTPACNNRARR
T1 chain 2: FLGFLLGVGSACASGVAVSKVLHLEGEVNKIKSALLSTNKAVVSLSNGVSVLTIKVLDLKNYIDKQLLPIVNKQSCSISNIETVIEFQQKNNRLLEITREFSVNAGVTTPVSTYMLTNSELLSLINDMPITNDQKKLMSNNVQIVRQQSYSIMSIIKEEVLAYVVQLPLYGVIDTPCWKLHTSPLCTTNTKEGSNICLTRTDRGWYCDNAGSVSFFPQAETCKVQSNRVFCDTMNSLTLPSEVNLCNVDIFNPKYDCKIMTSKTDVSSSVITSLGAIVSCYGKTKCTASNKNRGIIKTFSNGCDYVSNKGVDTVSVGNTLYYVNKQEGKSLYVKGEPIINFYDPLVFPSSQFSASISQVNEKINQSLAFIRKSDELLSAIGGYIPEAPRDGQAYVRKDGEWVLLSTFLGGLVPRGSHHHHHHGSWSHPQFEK

[2] = biological target: T2, RSV F protein mutant pXCS774 (RSV A2, UniProt P03420 26-109)
T2 chain 1: T1 chain 1
T2 chain 2: T1 chain 2 with I54S, V160I

[3] = biological target: T3, RSV F protein mutant pXCS890 (RSV A2, UniProt P03420 26-109)
T3 chain 1: T1 chain 1
T3 chain 2: T1 chain 2 with V160I, S350D, Q351E, S353D

[4] = biological target: RSV F protein mutant pXCS782 (RSV A2, UniProt P03420 26-109)
[5] = biological target: RSV F protein mutant pXCS891 (RSV A2, UniProt P03420 26-109)
[6] = biological target: T4, RSV F protein mutant pXCS845 (RSV A2, UniProt P03420 26-109)
T4 chain 1: T1 chain 1
T4 chain 2: T1 chain 2 with I54S, Q351E, S353D

[7] = biological target: RSV F protein mutant pXCS777 (RSV A2, UniProt P03420 26-109)
[8] = biological target: T5, RSV F protein mutant pXCS752 (RSV A2, UniProt P03420 26-109)
T5 chain 1: T1 chain 1
T5 chain 2: T1 chain 2 with I54S, V160I, S350D, Q351E, S353D

Binder	Response (nm shift) [1]	Response (nm shift) [2]	Response (nm shift) [3]	Response (nm shift) [4]	Response (nm shift) [5]	Response (nm shift) [6]	Response (nm shift) [7]	Response (nm shift) [8]
B1	0.863 nm	0.795 nm	0.999 nm	0.513 nm	0.92 nm	0.699 nm	0.27 nm	0.703 nm
B2	0.443 nm	0.34 nm	0.538 nm	0.222 nm	0.461 nm	0.314 nm	0.121 nm	0.234 nm
